PMC2111714

Molecular target: Cross-linked succinyl Con A (resuccinylated) (Canavalia ensiformis (jack bean))
Assay: radioligand binding

Substance “Dolichos biflorus lectin (natural protein)” has a glycoprotein specifically bound of 96 ng/plate.
